Measurements: patent US7718410B2, “In vivo incorporation of alkynyl amino acids into proteins in eubacteria” (The Scripps Research Institute, priority 2004, dated 2010)

Test system: E. coli
Assay: Chloramphenicol resistance conferred by the synthetase (amber suppression in the CAT gene)
Assay type: cell-based
Description: Following mutagenesis, the pool of synthetases was then passed through positive and negative rounds of selection. The positive selection is based on suppression of an amber stop codon at a permissive site (Asp112) in the chloramphenicol acetyltransferase (CAT) gene. When E. coli cells harboring the MjTyrRS mutant library, the mutated CAT gene and a coexpressed Mj amber suppressor tRNACUA were grown on minimal media in the presence of pPRO-Phe (1 mM) and chloramphenicol (80 μg/mL), the only surviving cells are those cells that contain a mutant synthetase that aminoacylates the tRNACUA with either an endogenous amino acid or pPRO-Phe. The synthetase library genes were then transformed into cells containing a mutated gene encoding the toxic protein barnase, which has three amber mutations at permissive sites (Gln2, Asp44, Gly65). The vector carrying the barnase reporter also contained the suppressor tRNA. Growth of these cells in the absence of pPRO-Phe selected against synthetases capable of accepting endogenous amino acids as a substrate. After three rounds of selection, 96 clones were screened for growth rate dependence on the presence or absence of pPRO-Phe, and eight candidate clones were identified and sequenced. The polynucleotide and amino acid sequences of the eight clones is also provided in SEQ ID NOS: 4 through 19. […]

B1: pPRO-PheRS-1: para-propargyloxyphenylalanine aminoacyl-tRNA synthetase isolate-1, derived from wild-type Methanococcus jannaschii tyrosyl tRNA-synthetase (protein)
chain: MDEFEMIKRNTSEIISEEELREVLKKDEKSAAIGFEPSGKIHLGHYLQIKKMIDLQNAGFDIIILLADLHAYLNQKGELDEIRKIGDYNKKVFEAMGLKAKYVYGSPFQFDKDYTLNVYRLALKTTLKRARRSMELIAREDENPKVAEVIYPIMQVNAIHYAGVDVAVGGMEQRKIHMLARELLPKKVVCIHNPVLTGLDGEGKMSSSKGNFIAVDDSPEEIRAKIKKAYCPAGVVEGNPIMEIAKYFLEYPLTIKRPEKFGGDLTVNSYEELESLFKNKELHPMDLKNAVAEELIKILEPIRKRL
modifications: para-propargyloxyphenylalanine aminoacyl-tRNA synthetase derived from M. jannaschii tyrosyl tRNA-synthetase
notes: para-propargyloxyphenylalanine aminoacyl-tRNA synthetase isolate-1, derived from wild-type Methanococcus jannaschii tyrosyl tRNA-synthetase
In the absence of pPRO-Phe
  chloramphenicol resistance on E. coli, IC50: 5 mg/L
In the presence of pPRO-Phe
  chloramphenicol resistance on E. coli, IC50: 110 mg/L
